Where “and” joins values, the source holds several entries; their conditions need not be identical. Identical values can stand only once.

In assay [1] the target is PfHsp70-zLS (linker switch mutant of PfHsp70-z carrying the linker of canonical Hsp70) (Plasmodium falciparum) (UniProt Q8IC01). Briefly: SPR.
The target of assay [2] is PfHsp70-1LS (linker switch mutant of PfHsp70-1 carrying the linker of PfHsp70-z) (Plasmodium falciparum) (UniProt Q8IB24). Briefly: SPR.

B1: Plasmodium falciparum Hsp110 (PfHsp70-z, PF3D7_0708800) (natural protein)
chain: MSVLGIDIGNDNSVVATINKGAINVVRNDISERLTPTLVGFTEKERLIGDSALSKLKSNYKNTCRNIKNLIGKIGTDVKDDIEIHEAYGDLIPCEYNYLGYEVEYKNEKVVFSAVRVLSALLSHLIKMAEKYIGKECKEIVLSYPPTFTNCQKECLLAATKIINANVLRIISDNTAVALDYGMYRMKEFKEDNGSLLVFVNIGYANTCVCVARFFSNKCEILCDIADSNLGGRNLDNELIKYITNIFVNNYKMNPLYKNNTPELCPMGTGRLNKFLVTSTASDQQNGINNKVRIKLQEVAIKTKKVLSANNEASIHVECLYEDLDCQGSINRETFEELCSNFFLTKLKHLLDTALCISKVNIQDIHSIEVLGGSTRVPFIQNFLQQYFQKPLSKTLIADESIARGCVLSAAMVSKHYKVKEYECVEKVTHPINVEWHNINDASKSNVEKLYTRDSLKKKVKKIVIPEKGHIKLTAYYENTPDLPSNCIKELGSCIVKINEKNDKIVESHVMTTFSNYDTFTFLGAQTVTKSVIKSKDEKKKADDKTEDKGEKKDAKDQEQNDDKDQTNDNNMNEKDTNDKKEKNNETNSPNKTELKKGEEGKVQTCYTTIPIETLLAQGSYSSKDIFNFSEQEINMQHSDILEGERLKHLNELETIIYESRSRLNGIYKNFVMDDERDRILLSLDDYENWLYDNIEENKNMFIKKKEEIRDLIKNIVQKFDVYNSKQQNLGNIINHLNNIITQCSNKPSDESQNIINRTTKFLNNINSLQEQEKNKPLYEPPVYTLNDIEAEFNEVTQLAQKFFSKLEVEELAKQKAKQEKEKEKEKEKEKEKEKEKNEETNLDANEEQNNEAKNNEEKENSTKNENSANPEE
For B1, in assay [1], the Kd was 3.17 nM and 2.79 nM and 1.84 nM; the koff was 4.15e-05 s⁻¹ and 4.36e-05 s⁻¹ and 5.32e-05 s⁻¹; the kon is 13100 M⁻¹ s⁻¹ and 23700 M⁻¹ s⁻¹ and 19100 M⁻¹ s⁻¹.

B2: PfHop (natural protein)
chain: MVNKEEAQRLKELGNKCFQEGKYEEAVKYFSDAITNDPLDHVLYSNLSGAFASLGRFYEALESANKCISIKKDWPKGYIRKGCAEHGLRQLSNAEKTYLEGLKIDPNNKSLQDALSKVRNENMLENAQLIAHLNNIIENDPQLKSYKEENSNYPHELLNTIKSINSNPMNIRIILSTCHPKISEGVEKFFGFKFTGEGNDAEERQRQQREEEERRKKKEEEERKKKEEEEMKKQNRTPEQIQGDEHKLKGNEFYKQKKFDEALKEYEEAIQINPNDIMYHYNKAAVHIEMKNYDKAVETCLYAIENRYNFKAEFIQVAKLYNRLAISYINMKKYDLAIEAYRKSLVEDNNRATRNALKELERRKEKEEKEAYIDPDKAEEHKNKGNEYFKNNDFPNAKKEYDEAIRRNPNDAKLYSNRAAALTKLIEYPSALEDVMKAIELDPTFVKAYSRKGNLHFFMKDYYKALQAYNKGLELDPNNKECLEGYQRCAFKIDEMSKSEKVDEEQFKKSMADPEIQQIISDPQFQIILQKLNENPNSISEYIKDPKIFNGLQKLIAAGILKVR
With B2, the Kd in assay [2] is 27.7 nM and 10 nM and 37.6 nM.

The record behind these values is paper PMC11066147.
